Assay results: patent publication US9347942B2, “Ultrasensitive cell based sensors and uses thereof” (CANVAX BIOTECH SL, priority 2010, dated 2016)
FAM = fluorophore of the FRET substrate

Experiments:
[1] = system: RBL-2H3 cells; assay: Ionomycin-induced release of granule stored protease reporters from stable cell lines (Example 5); type: cell-based, Rat; settings: stable RBL-2H3, 10 uM ionomycin 1 hour, supernatant equivalent to 100.000 cells, AMC substrate
Description: As either tryptase-like enzymes, chymase-like enzymes, elastase-like enzymes or asp-ase like enzymes are useful for the methods of the present invention we selected human granzyme A (tryptase-like enzyme); human granzyme B (Asp-ase-like enzyme); human chymase (chymase-like enzyme) and human proteinase 3 (elastase-like enzyme) for further examples. Vectors were developed for stable expression of human granzyme A, human granzyme B, human chymase and human proteinase 3 under the control of hCMV-MoMLV5′LTR chimeric promoter. A hygromycin resistance cassette was included in the vector backbone for selection of stable populations of cells. The vector also included an IRES-NGFR cassette cloned downstream of granule stored protease reporter and thus, under the control of hCMV-MoMLV5′LTR promoter for flow cytometry and/or selection by MACS of stable cells expressing either human granzyme A or human granzyme B or human chymase or human proteinase 3. Each vector was individually electroporated using a microporator (Digital Bio Technology, South Korea) into RBL-2H3 and after 48 hours hygromycin at 1500 ug/mL was added to culture for selection. After selection for about 2 weeks cells were analysed by flow cytometry (Guava Technologies, USA) with an antibody against NGFR coupled to FITC. Positive population where magnetically separated by MACS using anti-NGFR-MACS sup.R (Miltenyi Biotec, Germany). Sorted populations were again analysed again by flow cytometry to check the sorting efficiency. Percentage of NGFR positive cells was always higher than 65 percent. Cells were seeded the night before experiment in 24 well microplates at 650.000 cells per well in 800 microliters of complete cell culture medium. Next day cells were washed with HBSS buffer and were treated with 10 uM ionomycin for 1 hour at 37 Celsius degrees in 200 uL of HBSS buffer and after centrifugation at 400 g for 5 minutes supernatants were analysed for activity with specific fluorescent substrates. Controls of cells incubated with HBSS buffer only were included. Fluorescent substrates were: VANR-AMC for granzyme A; PEEI-AMC for human neutrophil elastase; PTSY-AMC for human chymase; VADC-AMC for human proteinase 3 and IEPD-AMC for human granzyme B. Released AMC was measured by excitation at 360 nm and emission at 460 nm in a BMG Labtech microplate fluorimeter in 96 well microplates using 125 microliters of supernatant and 125 microliters of specific substrate at 400 micromol per liter in HBSS buffer. Microplates were incubated at 37 Celsius degrees on the reader and were kinetically read at 0, 15, 30, 45 and 60 minutes. Control wells with substrate only in HBSS buffer were included to subtract autofluorescence of substrates to both cells treated with ionomycin and to cells treated with HBSS buffer only. Autofluorescence of peptide substrates in HBSS buffer was about 3000 while fluorescence of cells treated with HBSS buffer only for 60 minutes at 37 Celsius degrees was about 5000, that is basal release in the absence of exocytosis modulator was about 2000. In contrast, fluorescence of ionomycin-induced release of human granzymes A and B was about 20.000 for a signal to background of 10 when using the supernatant equivalent to 100.000 cells; fluorescence of ionomycin-induced release of human chymase was about 30.000 for a signal to background of 15 when using the supernatant equivalent to 100.000 cells and fluorescence of ionomycin-induced release of human proteinase 3 was about 12.000 for a signal to background of 6 when using the supernatant equivalent to 100.000 cells. Thus, tryptase-like enzymes, chymase-like enzymes, elastase-like enzymes or asp-ase like enzymes can be stably expressed into granules of hemopoyetic cells with professional regulated exocytosis and such granule stored proteases are released by exocytosis modulators to produce sensors with good signal to background ratios using specific AMC-coupled peptide substrates. […]

[2] = system: RBL-2H3 cells; assay: Ionomycin-induced release of granzyme B from different species, stable cell lines (Example 6); type: cell-based, Rat; settings: 100.000 cells per well, 10 uM ionomycin 1 hour, IEPD-AMC
Description: This experiment was designed to test if granule stored protease reporters from other species different from human could be used for the methods of the present invention. As an example we selected granzyme B from different species. Vectors were developed for expression of human, rat, horse and chimpanzee granzyme B and RBL-2H3 cells were individually transfected with the plasmids comprising the chimeric promoter of hCMV-MoMLV5′LTR-GranzymeB-IRES-NGFR with hygromycin resistance for stable transfections. Each vector was individually electroporated using a microporator (Digital Bio Technology, South Korea) into RBL-2H3 and after 48 hours hygromycin at 1500 ug/ml_was added to culture for selection. After selection for about 2 weeks cells were analysed by flow cytometry (Guava Technologies, USA) with an antibody against NGFR coupled to FITC. Positive population where magnetically separated by MACS using anti-NGFR-MACS sup.R (Miltenyi Biotec, Germany). Sorted populations were again analysed again by flow cytometry to check the sorting efficiency. Percentage of NGFR positive cells was always higher than 65 percent. Cells were seeded the night before experiment in 96 well microplates at 100.000 cells per well in 100 microliters of medium. Next day cells were washed with BSS buffer and were treated with 10 uM ionomycin for 1 hour at 37 Celsius degrees in 105 uL of HBSS buffer and after centrifugation at 400 g for 5 minutes supernatants were analysed for activity with specific fluorescent substrates. Controls of cells incubated with HBSS buffer only were included. Fluorescent substrate was IEPD-AMC for all granzymes B tested. Released AMC was measured by excitation at 360 nm and emission at 460 nm in a BMG Labtech microplate fluorimeter in 96 well microplates using 105 microliters of supernatant and 145 microliters of specific substrate at 345 micromol per liter in HBSS buffer. Microplates were incubated at 37 Celsius degrees on the reader and were kinetically read at 0, 15, 30, 45 and 60 minutes. Control wells with substrate only in HBSS buffer were included to subtract autofluorescence of substrates to both cells treated with ionomycin and to cells treated with HBSS buffer only.

[3] = molecular target: T1, human granzyme B (Homo sapiens, UniProt P10144); assay: Direct detection of secreted granzyme B with peptide substrates (Example 10); type: biochemical; settings: for signal to background: ionomycin 10 uM
T1 construct: expressed in transfected cells; host or cells: supernatant of RBL-2H3 stably transfected with human granzyme B, treated with ionomycin
T1 sequence (P10144 21-247): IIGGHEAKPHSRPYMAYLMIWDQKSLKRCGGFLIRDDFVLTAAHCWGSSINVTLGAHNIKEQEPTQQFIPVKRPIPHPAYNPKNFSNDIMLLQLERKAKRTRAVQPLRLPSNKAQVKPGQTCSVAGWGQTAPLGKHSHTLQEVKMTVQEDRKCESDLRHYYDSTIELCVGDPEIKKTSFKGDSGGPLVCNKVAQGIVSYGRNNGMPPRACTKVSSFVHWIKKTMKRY
Description: Human granzyme B was used as a model enzyme. […] Cleavage of FAM-TAMRA labelled peptide was detected by fluorescence using excitation at 485 nm and emission at 535 nm and labelled peptide at 1 uM final concentration.
For each substrate the exocytosis of 50.000, 25.000, 12.500, 6.250, 3.125, 1560, 780 and 390 cells was analysed. Cells were seeded the night before experiment at the above densities in 96 well plates using 100 uL of complete cell culture medium per well. The day of experiment cells were washed with HBSS buffer and exocytosis was initiated by addition of ionomycin at 10 uM final concentration in HBSS buffer and incubation for 60 minutes at 37 Celsius degrees. Controls of cells treated with HBSS buffer only were included for basal release determination. Five replicas of each cell density for each substrate were seeded. Supernatant from cells were centrifuged at 400 g for 5 minutes and used for fluorescence determination in 96 well plates. Released AMC was measured by excitation at 360 nm and emission at 460 nm in a BMG Labtech microplate fluorimeter in 96 well microplates while released FAM was measured by excitation at 485 nm and emission at 535 nm in the same reader. Microplates were incubated at 37 Celsius degrees on the reader and were kinetically read at 0, 15, 30, 45 and 60 minutes. Control wells with substrate only in HBSS buffer were included to subtract autofluorescence of substrates to both cells treated with ionomycin and to cells treated with HBSS buffer only. An arbitrary signal to background of about two was selected as sensitivity.

[4] = molecular target: T2, hIL8 receptor (hIL8RA) (Homo sapiens, UniProt P25024); assay: Multiplex assay, Sensor A channel (hIL8RA and human granzyme A) (Example 14); type: cell-based; settings: for Signal to background at 30 min: granzyme A substrate 1 uM
T2 construct: the entire human GPCR; mouse immunoglobulin kappa signal peptide (N); expressed in transfected cells
T2 sequence (P25024 3-350 limits assumed): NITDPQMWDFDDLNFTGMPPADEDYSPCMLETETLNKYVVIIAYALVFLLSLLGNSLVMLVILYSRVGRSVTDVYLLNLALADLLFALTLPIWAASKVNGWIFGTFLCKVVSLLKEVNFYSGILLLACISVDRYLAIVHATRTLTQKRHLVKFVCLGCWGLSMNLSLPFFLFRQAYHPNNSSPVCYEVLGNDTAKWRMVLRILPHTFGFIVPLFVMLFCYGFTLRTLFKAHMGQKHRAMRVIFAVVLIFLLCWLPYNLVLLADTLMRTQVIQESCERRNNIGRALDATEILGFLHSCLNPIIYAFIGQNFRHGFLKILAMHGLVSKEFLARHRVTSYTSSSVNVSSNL
Description: (§1) The principle of multiplex reactions is illustrated in FIG. 5. RBL2H3 cells were stably transfected with a pair of a GPCR as exocytosis modulator and a granzyme as a granule stored reporter as described in example 9. Combinations included were: hIL8 receptor (hIL8RA) and human granzyme A (Sensor A) and CHRM2 and granzyme B expressing cells of example #12 (Sensor B). Human IL8 was used as agonist of hll_8R while carbachol was used as CHRM2 agonist. […] As both substrates uses the same pair of fluorophore (FAM) and quencher (TAMRA) only one substrate could be added to reaction vessel for specific detection at 535 nm after excitation at 485 nm. […] Sensors, agonists and substrates were mixed in a total volume of 20 uL of HBSS in a black walled 384 well microplate and the microplate was incubated at 37 Celsius degrees in a BMG-Labtech microplate fluorimeter and read at 0, 15, 30, 45 and 60 minutes.

[5] = molecular target: T3, CHRM2 (Homo sapiens, UniProt P08172); assay: Multiplex assay, Sensor B channel (CHRM2 and granzyme B) (Example 14); type: cell-based; settings: Condition 9: Sensor A 12500 + Sensor B 5000 cells, IL8 10 uM, no carbachol, granzyme B substrate 1 uM
T3 construct: the entire human GPCR; mouse immunoglobulin kappa signal peptide (N); expressed in transfected cells
T3 sequence (P08172 2-466): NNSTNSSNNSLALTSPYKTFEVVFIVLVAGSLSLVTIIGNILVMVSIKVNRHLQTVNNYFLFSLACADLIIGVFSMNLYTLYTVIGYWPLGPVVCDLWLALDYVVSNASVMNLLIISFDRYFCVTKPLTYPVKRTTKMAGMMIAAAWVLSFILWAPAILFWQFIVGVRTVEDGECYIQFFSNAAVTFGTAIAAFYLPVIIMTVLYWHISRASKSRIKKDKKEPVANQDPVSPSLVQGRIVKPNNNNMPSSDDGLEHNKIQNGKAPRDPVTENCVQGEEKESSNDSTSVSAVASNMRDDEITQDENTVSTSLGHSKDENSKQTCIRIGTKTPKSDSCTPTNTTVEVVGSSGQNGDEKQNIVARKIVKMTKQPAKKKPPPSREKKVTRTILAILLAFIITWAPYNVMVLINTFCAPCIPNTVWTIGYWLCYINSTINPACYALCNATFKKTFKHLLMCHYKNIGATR
Description: as §1

[6] = molecular target: T1, human granzyme B; assay: Procaspase-3 zymogen activation by secreted granzyme B, DEVD-AMC readout (Example 11); type: biochemical
Description: As a model we selected human granzyme B. A human granzyme B activated-zymogen was developed from human native unmodified procaspase-3 (huCasp3) and from a mutated human procaspase-3 (mut-huCasp3) where the amino acids from 172 to 179 has been changed from […]to […] that is Threonine at 174 has been mutated to Proline because IEPD is a better granzyme B substrate than IETD and serine at 176 has been mutated to valine, glycine at 177 has been mutated to leucine, valine at 178 has been mutated to methionine and aspartic acid at 179 has been mutated to glutamic acid in order to both improve cleavage efficiency by human granzyme B and to reduce autoactivation of procaspase-3. cDNA from both variants of human pro-caspase-3 comprising amino acids from Serine at 29 to Aspartic acid at 192 were cloned into pET43a+ vector from Novagen. After sequencing expression vectors were transformed into BL21 DE3pLys E. coli strain for protein expression. Each protein was cloned with a polyhistidine tag at C-terminal end for purification. Human native procaspase-3 (huCasp3) was induced for only 30 minutes to prevent autoactivation, while mutated procaspase-3 (mut-huCasp3) was induced both for 30 minutes and for 2 hours. DEVD-AMC substrate was used for detection of active caspase-3 with excitation at 360 nm and emission at 460 nm. A supernatant equivalent to 15.000 RBL-2H3 stably transfected with human granzyme B treated with 10 uM ionomycin for 60 minutes was used for zymogen activation. Human granzyme B activity of such supernatant when measured with IEPD-AMC produced a signal to background of 2.6 after incubation for 60 minutes at 37 Celsius degrees using a supernatant equivalent to 25.000 cells. Background of fluorescence of DEVD-AMC substrate was 2775 and was subtracted from both granzyme B treated caspase-3 and non-granzyme B treated caspase-3 (caspase-3 only) used as control and all samples were tested by triplicate.

“Human granzyme B: Asp-ase-like serine protease (GZMB, NM_004131) used as granule stored reporter” was tested, and the “fluorescence of ionomycin-induced release” value [1] was “about 20.000”, the signal to background [1] was 10 and the “Fluorescence of supernatant from cells treated with ionomycin” value [2] was 20,000. It also gave a signal to background [2] of 10.

“FAM-Ser-Ile-Glu-Pro-Asp-Ser-Gly-Ser-TAMRA ({FAM}-SIEPDSGS-{TAMRA}) [FAM-TAMRA peptide, custom designed FRET based granzyme B substrate]” was tested, and the signal to background ([3]; 390 cells) was under 2, the signal to background ([3]; 780 cells) was 3 and the “times more sensitive for detection of granzyme B than IEPD-AMC peptide” value ([3]; sensitivity taken as 780 cells) was “more than 30 times”.

With IL8: Human IL8 used as agonist of hIL8R the “Signal to background at 30 min” value ([4]; Condition 2: 12500 cells Sensor A, IL8 10 uM) was 16, the “Signal to background at 30 min” value ([4]; Condition 5: Sensor A 12500 + Sensor B 5000 cells, IL8 10 uM + carbachol 10 uM) was 12.5 and the “maximal granzyme A activity secreted by sensor A upon IL8, relative to granzyme B activity secreted by sensor B upon carbachol” value ([4]; first experiment, data not shown) was “about 40%”. For the same molecule, the “Signal to background at 30 min” value [5] was 0.95.

B1: Native (unmodified) huCasp-3: human native unmodified procaspase-3 zymogen expressed in E. coli with polyhistidine tag (protein, UniProt P42574 1-277, looked up)
pro-form: MENTENSVDSKSIKNLEPKIIHGSESMDSGISLDNSYKMDYPEMGLCIIINNKNFHKSTGMTSRSGTDVDAANLRETFRNLKYEVRNKNDLTREEIVELMRDVSKEDHSKRSSFVCVLLSHGEEGIIFGTNGPVDLKKITNFFRGDRCRSLTGKPKLFIIQACRGTELDCGIETDSGVDDDMACHKIPVEADFLYAYSTAPGYYSWRNSKDGSWFIQSLCAMLKQYADKLEFMHILTRVNRKVATEFESFSFDATFHAKKQIPCIVSMLTKELYFYH
modifications: pro-form polyhistidine tag
notes: human native unmodified procaspase-3 zymogen expressed in E. coli with polyhistidine tag
For B1, the “times more sensitive than direct detection of secreted granzyme B with IEPD-AMC” value ([6]; 15.000 cells versus 25.000 cells) was “about 1.7 times”, the “Fluorescence of Caspase-3 only” value ([6]; no granzyme B, DEVD-AMC, background 2775 subtracted) was 15775 and the “signal to background (S/B)” value ([6]; supernatant equivalent to 15.000 cells, DEVD-AMC) was 2.8. The “Fluorescence of caspase-3 treated with granzyme B” value ([6]; supernatant equivalent to 15.000 ionomycin treated cells, DEVD-AMC, background 2775 subtracted) was 43548.

B2: Rat granzyme B: Granzyme B of rat (NM_138517) used as granule stored reporter (protein, UniProt P18291 21-248, looked up)
Granzyme B: IIGGHEAKPHSRPYMAYLQIMDEYSGSKKCGGFLIREDFVLTAAHCSGSKINVTLGAHNIKEQEKMQQIIPVVKIIPHPAYNSKTISNDIMLLKLKSKAKRSSAVKPLNLPRRNVKVKPGDVCYVAGWGKLGPMGKYSDTLQEVELTVQEDQKCESYLKNYFDKANEICAGDPKIKRASFRGDSGGPLVCKKVAAGIVSYGQNDGSTPRAFTKVSTFLSWIKKTMKKS
B2 was tested, and the “Fluorescence of supernatant from cells treated with ionomycin” value [2] was 22,000 and the signal to background [2] was 11.
